In patent US20230391845A1, “GLP-1, GIP AND GLUCAGON RECEPTOR TRIPLE AGONISTS” (priority 2020, published 2023):
Where no end group is shown, it is not given here. [ ]: non-standard residue; d: D form. Aib = CC(C)(N)C(=O)O

B1: Compound No. 27 (peptide)
peptide: H[Aib]HGTFTSDYSIYLEKQAAEEFVQWLLEGGPSSGAPPPS-NH2
modifications: not fully specified (residue 16); printed as H-Aib-HGTFTSDYSIYLE-K[(2S)-2-amino-6-[[(2S)-2-amino-6-[[(4S)-4-carboxy-4-(19-carboxynonadecanoylamino)butanoyl]amino]hexanoyl]amino]hexanoyl]-QAAEEFVQWLLEGGPSSGAPPPS-NH2
B2: Compound No. 26 (peptide)
peptide: H[Aib]HGTFTSDYSYYLEKQAA[Aib]EFVQWLLEGGPSSGAPPPS-NH2
modifications: not fully specified (residue 16); printed as H-Aib-HGTFTSDYSYYLE-K[(2S)-2-amino-6-[[(2S)-2-amino-6-[[(4S)-4-carboxy-4-(19-carboxynonadecanoylamino)butanoyl]amino]hexanoyl]amino]hexanoyl]-QAA-Aib-EFVQWLLEGGPSSGAPPPS-NH2
B3: Compound No. 34 (peptide)
peptide: H[Aib]HGTFTSDYSIYLEKKAA[Aib]EFVQWLLEGGPSSGAPPPS-NH2
modifications: not fully specified (residue 16); printed as H-Aib-HGTFTSDYSIYLE-K[2-[2-[2-[[2-[2-[2-[[(4S)-4-carboxy-4-(19-carboxynonadecanoylamino)butanoyl]amino]ethoxy]ethoxy]acetyl]amino]ethoxy]ethoxy]acetyl]-KAA-Aib-EFVQWLLEGGPSSGAPPPS-NH2
B4: Compound No. 28 (peptide)
peptide: H[Aib]HGTFTSDYSIYLDKQAA[Aib]EFVQWLLEGGPSSGAPPPS-NH2
modifications: not fully specified (residue 16); printed as H-Aib-HGTFTSDYSIYLD-K[(2S)-2-amino-6-[[(2S)-2-amino-6-[[(4S)-4-carboxy-4-(19-carboxynonadecanoylamino)butanoyl]amino]hexanoyl]amino]hexanoyl]-QAA-Aib-EFVQWLLEGGPSSGAPPPS-NH2
B5: Compound No. 37 (peptide)
peptide: H[Aib]HGTFTSDYSIYLEKRAA[Aib]EFVQWLLEGGPSSGAPPPS-NH2
modifications: not fully specified (residue 16); printed as H-Aib-HGTFTSDYSIYLE-K[(2S)-2-amino-6-[[(2S)-2-amino-6-[[(4S)-4-carboxy-4-(19-carboxynonadecanoylamino)butanoyl]amino]hexanoyl]amino]hexanoyl]-RAA-Aib-EFVQWLLEGGPSSGAPPPS-NH2
B6: Compound No. 39 (peptide)
peptide: H[Aib]HGTFTSDYSIYLEKKYA[Aib]EFVQWLLEGGPSSGAPPPS-NH2
modifications: not fully specified (residue 16); printed as H-Aib-HGTFTSDYSIYLE-K[2-[2-[2-[[2-[2-[2-[[(4S)-4-carboxy-4-(19-carboxynonadecanoylamino)butanoyl]amino]ethoxy]ethoxy]acetyl]amino]ethoxy]ethoxy]acetyl]-KYA-Aib-EFVQWLLEGGPSSGAPPPS-NH2
B7: Compound No. 32 (peptide)
peptide: H[Aib]HGTFTSDYSYYLEKQAA[Aib]EFVQWLLEGGPSSGAPPPS-NH2
modifications: not fully specified (residue 16); printed as H-Aib-HGTFTSDYSYYLE-K[(2S)-2-amino-6-[[(2S)-2-amino-6-[[(4S)-4-carboxy-4-(17-carboxyheptadecanoylamino)butanoyl]amino]hexanoyl]amino]hexanoyl]-QAA-Aib-EFVQWLLEGGPSSGAPPPS-NH2
B8: Compound No. 31 (peptide)
peptide: H[Aib]HGTFTSDYSYYLEKKAA[Aib]EFVQWLLEGGPSSGAPPPS-NH2
modifications: not fully specified (residue 16); printed as H-Aib-HGTFTSDYSYYLE-K[(2S)-2-amino-6-[[(2S)-2-amino-6-[[(4S)-4-carboxy-4-(19-carboxynonadecanoylamino)butanoyl]amino]hexanoyl]amino]hexanoyl]-KAA-Aib-EFVQWLLEGGPSSGAPPPS-NH2
B9: Compound No. 35 (peptide)
peptide: H[Aib]HGTFTSDYSIYLEKQKA[Aib]EFVQWLLEGGPSSGAPPPS-NH2
modifications: not fully specified (residue 16); printed as H-Aib-HGTFTSDYSIYLE-K[(2S)-2-amino-6-[[(2S)-2-amino-6-[[(4S)-4-carboxy-4-(19-carboxynonadecanoylamino)butanoyl]amino]hexanoyl]amino]hexanoyl]-QKA-Aib-EFVQWLLEGGPSSGAPPPS-NH2
B10: Compound No. 36 (peptide)
peptide: H[Aib]HGTFTSDYSKYLEKQAA[Aib]EFVQWLLEGGPSSGAPPPS-NH2
modifications: not fully specified (residue 16); printed as H-Aib-HGTFTSDYSKYLE-K[(2S)-2-amino-6-[[(2S)-2-amino-6-[[(4S)-4-carboxy-4-(19-carboxynonadecanoylamino)butanoyl]amino]hexanoyl]amino]hexanoyl]-QAA-Aib-EFVQWLLEGGPSSGAPPPS-NH2
B11: Compound No. 38 (peptide)
peptide: H[Aib]HGTFTSDYSIYLEKKYA[Aib]EFVQWLLEGGPSSGAPPPS-NH2
modifications: not fully specified (residue 16); printed as H-Aib-HGTFTSDYSIYLE-K[(2S)-2-amino-6-[[(2S)-2-amino-6-[[(4S)-4-carboxy-4-(17-carboxyheptadecanoylamino)butanoyl]amino]hexanoyl]amino]hexanoyl]-KYA-Aib-EFVQWLLEGGPSSGAPPPS-NH2
B12: Compound No. 29 (peptide)
peptide: H[Aib]HGTFTSDYSYYLEKQYA[Aib]EFVQWLLEGGPSSGAPPPS-NH2
modifications: not fully specified (residue 16); printed as H-Aib-HGTFTSDYSYYLE-K[(2S)-2-amino-6-[[(2S)-2-amino-6-[[(4S)-4-carboxy-4-(19-carboxynonadecanoylamino)butanoyl]amino]hexanoyl]amino]hexanoyl]-QYA-Aib-EFVQWLLEGGPSSGAPPPS-NH2

Columns and labels:
Test in all cases: cell-based or functional assay
human glucagon receptor = human glucagon receptor (human, UniProt P47871 26-477)
human glucagon receptor, sequence (P47871 26-477): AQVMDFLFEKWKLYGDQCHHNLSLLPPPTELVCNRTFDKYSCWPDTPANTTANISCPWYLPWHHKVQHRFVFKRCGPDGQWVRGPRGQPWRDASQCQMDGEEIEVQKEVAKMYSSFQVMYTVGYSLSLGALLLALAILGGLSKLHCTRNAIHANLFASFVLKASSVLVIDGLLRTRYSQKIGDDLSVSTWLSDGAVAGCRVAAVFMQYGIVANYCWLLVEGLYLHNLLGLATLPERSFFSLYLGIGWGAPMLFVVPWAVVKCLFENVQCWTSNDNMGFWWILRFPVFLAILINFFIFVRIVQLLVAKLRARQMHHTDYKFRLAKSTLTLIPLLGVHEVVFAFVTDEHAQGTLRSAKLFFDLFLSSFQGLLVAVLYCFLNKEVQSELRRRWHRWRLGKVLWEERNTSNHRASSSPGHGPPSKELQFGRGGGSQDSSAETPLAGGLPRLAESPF

[1] = molecular target: T1, human glucose-dependent insulinotropic polypeptide receptor (human, UniProt P48546 22-466)
T1 sequence (looked up): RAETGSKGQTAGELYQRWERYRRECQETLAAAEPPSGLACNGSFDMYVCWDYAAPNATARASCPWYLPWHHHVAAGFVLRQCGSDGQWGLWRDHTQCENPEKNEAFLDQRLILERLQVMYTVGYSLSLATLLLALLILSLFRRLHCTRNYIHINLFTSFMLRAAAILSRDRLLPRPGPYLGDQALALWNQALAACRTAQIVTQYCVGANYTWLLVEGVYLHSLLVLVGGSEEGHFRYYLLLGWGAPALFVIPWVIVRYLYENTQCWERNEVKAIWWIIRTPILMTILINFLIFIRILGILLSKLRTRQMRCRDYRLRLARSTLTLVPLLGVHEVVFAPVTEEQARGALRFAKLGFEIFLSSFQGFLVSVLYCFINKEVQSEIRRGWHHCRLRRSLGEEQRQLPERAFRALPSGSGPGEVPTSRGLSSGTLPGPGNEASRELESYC

[2] = molecular target: human glucagon-like peptide 1 receptor (human, UniProt P43220 24-463)

Binder	hGcgR CRE Luc EC50 (pM) (human glucagon receptor)	hGIPR CRE Luc EC50 (pM) [1]	hGLP-1R CRE Luc EC50 (pM) [2]
B1	55 pM	2.5 pM	0.8 pM
B2	13.6 pM	6.5 pM	3.1 pM
B3	24.7 pM	8.7 pM	2.6 pM
B4	16.7 pM	7.7 pM	4.5 pM
B5	11.8 pM	10.8 pM	1.8 pM
B6	12.9 pM	17.9 pM	4.4 pM
B7	10.3 pM	3.5 pM	1.6 pM
B8	7.7 pM	9 pM	3 pM
B9	5 pM	13.9 pM	5.2 pM
B10	11.4 pM	9.3 pM	1.8 pM
B11	6.4 pM	13.1 pM	2.8 pM
B12	9.6 pM	7.2 pM	5.8 pM
